B1: TTC32 (parent)
chain: YSAYIRRCACAASSDESPGSKCSP
B2: EHMT1 (parent)
chain: EEINKNISDFGRQQLLPPFPSLHQ

Variants of: B1
Assay: protein stability index of a GFP-peptide fusion (GPS, HEK-293T) (PSI 1-6); higher = more stable
Details: c terminus: a fixed tail appended
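Note: lentivirally expressed fusions sorted by FACS into six bins by GFP to DsRed ratio, PSI derived from sequencing read proportions per bin multiplied by bin number.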

| Variant | protein stability index |
| --- | --- |
| YSAYIRRCACAASSDESQGSKCSP | 1.96 |
| YSAYIRRCACAASSDESMGSKCSP | 1.68 |
| YSAYIRRCACAASSDESTGSKCSP | 2.42 |
| YSAYIRRCACAASSDESKGSKCSP | 2.82 |
| YSAYIRRCACAASSDESAGSKCSP | 1.83 |
| YSAYIRRCACAASSDESVGSKCSP | 2.07 |
| YSAYIRRCACAASSDESWGSKCSP | 2.63 |
| YSAYIRRCACAASSDESPVSKCSP | 1.03 |
| YSAYIRRCACAASSDESPWSKCSP | 4.05 |
| YSAYIRRCACAASSDESPFSKCSP | 2.32 |
| YSAYIRRCACAASSDESPQSKCSP | 2 |
| YSAYIRRCACAASSDESPMSKCSP | 1.74 |
| YSAYIRRCACAASSDESPDSKCSP | 2.83 |
| YSAYIRRCACAASSDESPISKCSP | 1.89 |
| YSAYIRRCACAASSDESPNSKCSP | 2.24 |
| YSAYIRRCACAASSDESPRSKCSP | 2.04 |
| YSAYIRRCACLASSDESPGSKCSP | 1.74 |
| YSAYIRRCACHASSDESPGSKCSP | 2.33 |
| YSAYIRRCACCASSDESPGSKCSP | 2.06 |
| YSAYIRRCACRASSDESPGSKCSP | 1.74 |
| YSAYIRRCACSASSDESPGSKCSP | 1.95 |
| YSAYIRRCACKASSDESPGSKCSP | 2.36 |
| YSAYIRRCACAASSDESPGFKCSP | 1.93 |
| YSAYIRRCACAASSDESPGTKCSP | 2.14 |
| YSAYIRRCACAASSDESPGRKCSP | 1.65 |
| HSAYIRRCACAASSDESPGSKCSP | 2.65 |

| Variant | protein stability index |
| --- | --- |
| LSAYIRRCACAASSDESPGSKCSP | 2.61 |
| WSAYIRRCACAASSDESPGSKCSP | 2.45 |
| ESAYIRRCACAASSDESPGSKCSP | 3.29 |
| RSAYIRRCACAASSDESPGSKCSP | 2.64 |
| PSAYIRRCACAASSDESPGSKCSP | 2.88 |
| YSAYIRRCACAASYDESPGSKCSP | 1.88 |
| YSAYIRRCACAASRDESPGSKCSP | 2.03 |
| YSAYIRRCACAASEDESPGSKCSP | 2.65 |
| YSAYIRRCACAASLDESPGSKCSP | 2 |
| YSAYIRRCACAASKDESPGSKCSP | 2.29 |
| YSAYIRRCAIAASSDESPGSKCSP | 2.38 |
| YSAYIRRCAMAASSDESPGSKCSP | 1.97 |
| YSAYIRRCAAAASSDESPGSKCSP | 3.13 |
| YSAYIRRCANAASSDESPGSKCSP | 2.73 |
| YSAYIRRCASAASSDESPGSKCSP | 2.92 |
| YSAYIRRCAYAASSDESPGSKCSP | 2.17 |
| YSTYIRRCACAASSDESPGSKCSP | 2.16 |
| YSVYIRRCACAASSDESPGSKCSP | 2.05 |
| YSFYIRRCACAASSDESPGSKCSP | 1.86 |
| YSYYIRRCACAASSDESPGSKCSP | 1.75 |
| YSKYIRRCACAASSDESPGSKCSP | 2.44 |
| YSHYIRRCACAASSDESPGSKCSP | 2.15 |
| YSDYIRRCACAASSDESPGSKCSP | 2.62 |
| YSIYIRRCACAASSDESPGSKCSP | 1.51 |
| YSAYIRRCACAHSSDESPGSKCSP | 2.16 |
| YSAYIRRCACAVSSDESPGSKCSP | 2.16 |

| Variant | protein stability index |
| --- | --- |
| YSAYIRRCACARSSDESPGSKCSP | 1.93 |
| YSAYIRRCACAMSSDESPGSKCSP | 1.82 |
| YSADIRRCACAASSDESPGSKCSP | 3.36 |
| YSAWIRRCACAASSDESPGSKCSP | 3.57 |
| YSAFIRRCACAASSDESPGSKCSP | 1.92 |
| YSAMIRRCACAASSDESPGSKCSP | 2.1 |
| YSAGIRRCACAASSDESPGSKCSP | 3.35 |
| YSAKIRRCACAASSDESPGSKCSP | 2.5 |
| YSARIRRCACAASSDESPGSKCSP | 2.67 |
| YSAPIRRCACAASSDESPGSKCSP | 2.45 |
| YSACIRRCACAASSDESPGSKCSP | 2.4 |
| YSAYIRRCACAASSDYSPGSKCSP | 2.36 |
| YSAYIRRCACAASSDMSPGSKCSP | 2.42 |
| YSAYIRRCACAASSDNSPGSKCSP | 1.92 |
| YSAYIRRCACAASSDHSPGSKCSP | 2.36 |
| YSAYIRRCACAASSDRSPGSKCSP | 1.62 |
| YSAYIRRCACAASSDFSPGSKCSP | 2.68 |
| YSAYIRRCACAASSDTSPGSKCSP | 2.22 |
| YSAYIRKCACAASSDESPGSKCSP | 2.23 |
| YSAYIRQCACAASSDESPGSKCSP | 2.48 |
| YSAYIRGCACAASSDESPGSKCSP | 2.7 |
| YSAYIRVCACAASSDESPGSKCSP | 1.64 |
| YSAYIRWCACAASSDESPGSKCSP | 2.53 |
| YSAYIRTCACAASSDESPGSKCSP | 2.08 |
| YSAYIRFCACAASSDESPGSKCSP | 2.59 |
| YSAYIRPCACAASSDESPGSKCSP | 3.01 |

| Variant | protein stability index |
| --- | --- |
| YSAYIRRCACAASSDESPGSKDSP | 2.22 |
| YSAYIRRCACAASSDESPGSKHSP | 2.14 |
| YSAYIRRCACAASSDESPGSKVSP | 2.1 |
| YSAYIRRCACAASSDESPGSKMSP | 1.71 |
| YSAYIRRCACAASSDESPGSKFSP | 1.69 |
| YSAYIRRCACAASSDESPGSKASP | 2.72 |
| YSAYIRRCACAANSDESPGSKCSP | 1.87 |
| YSAYIRRCACAAQSDESPGSKCSP | 1.96 |
| YSAYIRRCACAADSDESPGSKCSP | 2.62 |
| YSAYIRRCACAATSDESPGSKCSP | 2.1 |
| YSAYIPRCACAASSDESPGSKCSP | 2.66 |
| YSAYINRCACAASSDESPGSKCSP | 2.58 |
| YSAYIHRCACAASSDESPGSKCSP | 1.82 |
| YSAYICRCACAASSDESPGSKCSP | 2.26 |
| YSAYIIRCACAASSDESPGSKCSP | 2.43 |
| YSAYIYRCACAASSDESPGSKCSP | 2.25 |
| YSAYIKRCACAASSDESPGSKCSP | 1.97 |
| YSAYIDRCACAASSDESPGSKCSP | 3.62 |
| YSAYIRRCACAASSRESPGSKCSP | 1.85 |
| YSAYIRRCACAASSQESPGSKCSP | 2.02 |
| YSAYIRRCACAASSMESPGSKCSP | 2.28 |
| YSAYIRRCACAASSFESPGSKCSP | 2.34 |
| YSAYIRRCACAASSHESPGSKCSP | 2.37 |
| YSAYIRRCACAASSPESPGSKCSP | 1.99 |
| YSAYIRRCWCAASSDESPGSKCSP | 1.45 |
| YSAYIRRCYCAASSDESPGSKCSP | 1.55 |

| Variant | protein stability index |
| --- | --- |
| YSAYIRRCMCAASSDESPGSKCSP | 1.96 |
| YSAYIRRCKCAASSDESPGSKCSP | 2.38 |
| YSAYIRRCECAASSDESPGSKCSP | 3.19 |
| YSAYIRRCVCAASSDESPGSKCSP | 2.17 |
| YSAYIRRCCCAASSDESPGSKCSP | 1.59 |
| YSAYIRRCACAASSDESPGSKCSW | 1.91 |
| YSAYIRRCACAASSDESPGSKCSN | 2.31 |
| YSAYIRRCACAASSDESPGSKCSV | 2.93 |
| YSAYIRRCACAASSDESPGSKCSE | 2.34 |
| YPAYIRRCACAASSDESPGSKCSP | 2.59 |
| YLAYIRRCACAASSDESPGSKCSP | 2 |
| YFAYIRRCACAASSDESPGSKCSP | 2.16 |
| YAAYIRRCACAASSDESPGSKCSP | 2.38 |
| YGAYIRRCACAASSDESPGSKCSP | 2.37 |
| YSAYIRRCACAASSDESPGSACSP | 2.23 |
| YSAYIRRCACAASSDESPGSECSP | 2.3 |
| YSAYIRRCACAASSDESPGSLCSP | 1.95 |
| YSAYIRRCACAASSDESPGSSCSP | 1.86 |
| YSAYIRRCACAASSDESPGSMCSP | 3.54 |
| YSAYIRRCACAASSDESPGSQCSP | 1.98 |
| YSAYIRRCACAASSDESPGSHCSP | 1.97 |
| YSAYIRRCACAASSDESPGSDCSP | 1.92 |
| YSAYIRRKACAASSDESPGSKCSP | 3.48 |
| YSAYIRRMACAASSDESPGSKCSP | 2.05 |
| YSAYIRRYACAASSDESPGSKCSP | 2.07 |
| YSAYIRRWACAASSDESPGSKCSP | 2.48 |

| Variant | protein stability index |
| --- | --- |
| YSAYIRRIACAASSDESPGSKCSP | 2.21 |
| YSAYIRREACAASSDESPGSKCSP | 3.93 |
| YSAYIRRHACAASSDESPGSKCSP | 2.91 |
| YSAYIRRQACAASSDESPGSKCSP | 3.23 |
| YSAYIRRLACAASSDESPGSKCSP | 2.38 |
| YSAYSRRCACAASSDESPGSKCSP | 2.52 |
| YSAYPRRCACAASSDESPGSKCSP | 2.24 |
| YSAYDRRCACAASSDESPGSKCSP | 3.16 |
| YSAYGRRCACAASSDESPGSKCSP | 2.09 |
| YSAYVRRCACAASSDESPGSKCSP | 1.85 |
| YSAYHRRCACAASSDESPGSKCSP | 2.82 |
| YSAYTRRCACAASSDESPGSKCSP | 2.61 |
| YSAYKRRCACAASSDESPGSKCSP | 2.65 |
| YSAYIRRCACAASSDESPGSKCWP | 2.53 |
| YSAYIRRCACAASSDESPGSKCGP | 2.08 |
| YSAYIRRCACAASSDESPGSKCYP | 1.5 |
| YSAYIRRCACAASSDESPGSKCPP | 2.02 |
| YSAYIRRCACAASSDESPGSKCEP | 2.14 |
| YSAYIRRCACAASSDESPGSKCVP | 2.52 |
| YSAYIRRCACAASSDESPGSKCLP | 2.08 |
| YSAYIRRCACAASSDEPPGSKCSP | 2.44 |
| YSAYIRRCACAASSDEQPGSKCSP | 1.96 |
| YSAYIRRCACAASSDELPGSKCSP | 1.78 |
| YSAYIRRCACAASSDEKPGSKCSP | 1.94 |
| YSAYIRRCACAASSDEHPGSKCSP | 1.85 |

Variants of: B2
Assay: as above
Details: c terminus: a fixed tail appended

| Variant | protein stability index |
| --- | --- |
| NEINKNISDFGRQQLLPPFPSLHQ | 2.44 |
| AEINKNISDFGRQQLLPPFPSLHQ | 2.47 |
| LEINKNISDFGRQQLLPPFPSLHQ | 2.42 |
| FEINKNISDFGRQQLLPPFPSLHQ | 2.3 |
| CEINKNISDFGRQQLLPPFPSLHQ | 2.44 |
| MEINKNISDFGRQQLLPPFPSLHQ | 2.35 |
| QEINKNISDFGRQQLLPPFPSLHQ | 2.73 |
| DEINKNISDFGRQQLLPPFPSLHQ | 2.58 |
| IEINKNISDFGRQQLLPPFPSLHQ | 1.76 |
| KEINKNISDFGRQQLLPPFPSLHQ | 2.74 |
| YEINKNISDFGRQQLLPPFPSLHQ | 2.11 |
| TEINKNISDFGRQQLLPPFPSLHQ | 2.9 |
| WEINKNISDFGRQQLLPPFPSLHQ | 1.91 |
| PEINKNISDFGRQQLLPPFPSLHQ | 2.54 |
| HEINKNISDFGRQQLLPPFPSLHQ | 2.56 |
| GEINKNISDFGRQQLLPPFPSLHQ | 2.7 |
| SEINKNISDFGRQQLLPPFPSLHQ | 3.23 |

| Variant | protein stability index |
| --- | --- |
| REINKNISDFGRQQLLPPFPSLHQ | 2.55 |
| VEINKNISDFGRQQLLPPFPSLHQ | 2.22 |
| EGINKNISDFGRQQLLPPFPSLHQ | 2.51 |
| ECINKNISDFGRQQLLPPFPSLHQ | 2.35 |
| EKINKNISDFGRQQLLPPFPSLHQ | 2.64 |
| EHINKNISDFGRQQLLPPFPSLHQ | 1.96 |
| EAINKNISDFGRQQLLPPFPSLHQ | 2.3 |
| EQINKNISDFGRQQLLPPFPSLHQ | 2.36 |
| EMINKNISDFGRQQLLPPFPSLHQ | 2.24 |
| EIINKNISDFGRQQLLPPFPSLHQ | 2.14 |
| ELINKNISDFGRQQLLPPFPSLHQ | 2.21 |
| EPINKNISDFGRQQLLPPFPSLHQ | 2.65 |
| EFINKNISDFGRQQLLPPFPSLHQ | 1.74 |
| EDINKNISDFGRQQLLPPFPSLHQ | 2.72 |
| ERINKNISDFGRQQLLPPFPSLHQ | 2.17 |
| ENINKNISDFGRQQLLPPFPSLHQ | 2.29 |

Reference: the supplement of paper PMC10567573
